Results on 2 molecules are retold here after article PMC6822712.

Some targets named below: TrkC (human) (human) (UniProt Q16288); TrkB (rat) (rat) (UniProt Q63604); TrkC (rat) (rat) (UniProt Q03351); TrkB (human) (human) (UniProt Q16620); TrkA (human) (human) (UniProt P04629).
Chain of UniProt P04629 (P04629 33-796): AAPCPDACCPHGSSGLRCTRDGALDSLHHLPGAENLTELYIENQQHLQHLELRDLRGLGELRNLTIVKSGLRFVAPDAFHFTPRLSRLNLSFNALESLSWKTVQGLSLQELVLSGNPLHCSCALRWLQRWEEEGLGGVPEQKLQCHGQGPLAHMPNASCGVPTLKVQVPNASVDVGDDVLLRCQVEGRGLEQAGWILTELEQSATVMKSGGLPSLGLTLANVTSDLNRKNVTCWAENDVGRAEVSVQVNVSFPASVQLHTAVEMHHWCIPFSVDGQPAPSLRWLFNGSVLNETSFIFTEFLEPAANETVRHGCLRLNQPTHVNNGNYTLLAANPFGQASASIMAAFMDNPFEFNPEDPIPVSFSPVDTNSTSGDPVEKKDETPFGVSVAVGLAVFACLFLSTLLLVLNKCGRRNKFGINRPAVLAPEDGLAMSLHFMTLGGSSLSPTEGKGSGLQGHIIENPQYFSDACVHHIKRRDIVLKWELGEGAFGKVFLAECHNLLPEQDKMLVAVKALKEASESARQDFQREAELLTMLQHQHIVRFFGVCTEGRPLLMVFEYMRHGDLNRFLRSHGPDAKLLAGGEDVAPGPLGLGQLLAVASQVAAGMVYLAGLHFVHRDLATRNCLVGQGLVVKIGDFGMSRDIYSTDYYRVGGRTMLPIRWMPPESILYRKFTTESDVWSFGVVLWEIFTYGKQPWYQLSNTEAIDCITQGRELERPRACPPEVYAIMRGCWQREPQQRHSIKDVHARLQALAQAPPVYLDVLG
Chain of UniProt Q63604 (Q63604 32-821): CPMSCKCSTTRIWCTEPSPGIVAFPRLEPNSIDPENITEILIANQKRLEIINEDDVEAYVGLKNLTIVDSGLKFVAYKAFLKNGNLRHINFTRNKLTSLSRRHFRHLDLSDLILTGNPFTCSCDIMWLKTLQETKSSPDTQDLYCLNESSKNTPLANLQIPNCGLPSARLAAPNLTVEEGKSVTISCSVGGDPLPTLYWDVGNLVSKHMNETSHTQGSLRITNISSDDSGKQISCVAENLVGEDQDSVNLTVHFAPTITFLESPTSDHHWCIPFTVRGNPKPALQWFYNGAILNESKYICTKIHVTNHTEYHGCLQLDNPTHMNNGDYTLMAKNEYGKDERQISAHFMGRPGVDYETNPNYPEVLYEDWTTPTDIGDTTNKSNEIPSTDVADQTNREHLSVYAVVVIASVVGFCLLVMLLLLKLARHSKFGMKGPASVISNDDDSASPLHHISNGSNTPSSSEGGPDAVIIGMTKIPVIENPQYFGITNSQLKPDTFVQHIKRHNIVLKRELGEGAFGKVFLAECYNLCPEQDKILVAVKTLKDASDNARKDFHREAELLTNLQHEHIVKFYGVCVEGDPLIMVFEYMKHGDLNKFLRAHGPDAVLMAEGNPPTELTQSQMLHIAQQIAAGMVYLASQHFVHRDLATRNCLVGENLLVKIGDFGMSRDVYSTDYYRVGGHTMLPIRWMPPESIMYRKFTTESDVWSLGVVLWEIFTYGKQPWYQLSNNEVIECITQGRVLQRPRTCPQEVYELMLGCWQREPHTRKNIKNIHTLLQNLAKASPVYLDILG
Chain of UniProt Q16620 (Q16620 32-822): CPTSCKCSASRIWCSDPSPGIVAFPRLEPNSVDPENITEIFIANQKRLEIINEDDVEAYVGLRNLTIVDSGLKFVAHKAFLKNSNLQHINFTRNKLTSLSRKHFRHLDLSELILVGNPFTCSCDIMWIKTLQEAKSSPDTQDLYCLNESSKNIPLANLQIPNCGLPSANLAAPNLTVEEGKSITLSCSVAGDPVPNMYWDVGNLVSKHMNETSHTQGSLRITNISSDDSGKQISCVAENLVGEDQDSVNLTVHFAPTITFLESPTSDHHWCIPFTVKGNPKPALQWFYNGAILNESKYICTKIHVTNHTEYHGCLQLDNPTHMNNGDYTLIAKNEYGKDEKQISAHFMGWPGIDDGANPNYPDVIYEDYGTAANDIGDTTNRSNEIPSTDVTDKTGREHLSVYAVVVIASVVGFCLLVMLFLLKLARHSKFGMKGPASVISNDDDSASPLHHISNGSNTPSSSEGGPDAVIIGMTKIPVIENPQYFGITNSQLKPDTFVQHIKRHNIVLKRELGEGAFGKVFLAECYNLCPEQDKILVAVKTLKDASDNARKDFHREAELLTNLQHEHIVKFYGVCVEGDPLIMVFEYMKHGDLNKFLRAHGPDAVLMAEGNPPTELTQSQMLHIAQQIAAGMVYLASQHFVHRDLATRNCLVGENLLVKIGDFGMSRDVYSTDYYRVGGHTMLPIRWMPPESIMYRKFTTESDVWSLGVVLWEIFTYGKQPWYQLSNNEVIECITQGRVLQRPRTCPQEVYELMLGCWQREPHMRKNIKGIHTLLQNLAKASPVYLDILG
Chain of UniProt Q03351 (Q03351 32-864): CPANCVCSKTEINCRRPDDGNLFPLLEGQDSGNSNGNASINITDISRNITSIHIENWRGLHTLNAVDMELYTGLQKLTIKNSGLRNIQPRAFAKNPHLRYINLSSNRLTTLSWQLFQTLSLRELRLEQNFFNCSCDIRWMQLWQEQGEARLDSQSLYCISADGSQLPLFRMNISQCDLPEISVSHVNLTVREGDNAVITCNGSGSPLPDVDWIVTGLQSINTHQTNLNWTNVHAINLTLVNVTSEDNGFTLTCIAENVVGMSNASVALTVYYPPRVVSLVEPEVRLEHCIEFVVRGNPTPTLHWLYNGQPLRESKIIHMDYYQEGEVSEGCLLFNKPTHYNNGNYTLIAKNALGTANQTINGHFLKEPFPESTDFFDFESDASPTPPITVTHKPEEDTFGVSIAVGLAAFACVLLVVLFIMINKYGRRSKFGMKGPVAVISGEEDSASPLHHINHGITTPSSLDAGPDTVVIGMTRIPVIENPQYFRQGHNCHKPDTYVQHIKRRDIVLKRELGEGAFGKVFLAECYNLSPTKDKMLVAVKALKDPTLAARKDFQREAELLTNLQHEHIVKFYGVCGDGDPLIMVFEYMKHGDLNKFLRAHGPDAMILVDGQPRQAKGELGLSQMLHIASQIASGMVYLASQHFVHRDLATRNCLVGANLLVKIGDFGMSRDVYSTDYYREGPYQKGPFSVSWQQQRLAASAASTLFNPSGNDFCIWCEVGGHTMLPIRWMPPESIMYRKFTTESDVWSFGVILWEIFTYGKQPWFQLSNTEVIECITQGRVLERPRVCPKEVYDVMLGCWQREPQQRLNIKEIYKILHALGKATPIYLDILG
Chain of UniProt Q16288 (Q16288 32-839): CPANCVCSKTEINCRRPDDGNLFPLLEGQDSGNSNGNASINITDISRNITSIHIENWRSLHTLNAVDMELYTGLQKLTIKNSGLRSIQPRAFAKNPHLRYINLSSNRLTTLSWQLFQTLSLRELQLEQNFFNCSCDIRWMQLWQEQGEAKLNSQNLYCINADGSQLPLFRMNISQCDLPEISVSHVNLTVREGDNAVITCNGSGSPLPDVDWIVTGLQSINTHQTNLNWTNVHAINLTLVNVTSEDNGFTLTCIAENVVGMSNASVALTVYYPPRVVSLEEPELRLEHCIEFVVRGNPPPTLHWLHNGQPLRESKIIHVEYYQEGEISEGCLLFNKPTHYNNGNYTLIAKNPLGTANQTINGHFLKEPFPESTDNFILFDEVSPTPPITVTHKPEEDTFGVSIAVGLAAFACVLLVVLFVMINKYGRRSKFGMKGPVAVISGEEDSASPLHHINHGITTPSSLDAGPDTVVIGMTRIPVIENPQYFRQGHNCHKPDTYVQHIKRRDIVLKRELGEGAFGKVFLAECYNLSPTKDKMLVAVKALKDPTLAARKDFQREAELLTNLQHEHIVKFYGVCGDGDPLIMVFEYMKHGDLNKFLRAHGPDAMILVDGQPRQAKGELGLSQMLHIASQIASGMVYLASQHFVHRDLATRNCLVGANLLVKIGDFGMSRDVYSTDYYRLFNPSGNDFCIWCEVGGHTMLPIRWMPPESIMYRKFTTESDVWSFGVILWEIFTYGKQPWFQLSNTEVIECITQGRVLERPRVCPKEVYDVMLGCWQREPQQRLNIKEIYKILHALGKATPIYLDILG

Turning to BDNF (ligand), in the experiment with TrkC (human) (human), the EC50 of ERK phosphorylation (phospho-ERK AlphaLISA), NIH3T3 cells stably expressing human TrkC was found to be 26.8 nM and the Max (%) of ERK phosphorylation (phospho-ERK AlphaLISA), relative to 10nM NT-3, NIH3T3 cells stably expressing human TrkC is 104%. Besides, in the experiment with TrkB (rat) (rat), the EC50 of ERK phosphorylation (phospho-ERK AlphaLISA), HEK293 cells stably expressing rat TrkB was found to be 0.19 nM and the Max (%) of ERK phosphorylation (phospho-ERK AlphaLISA), relative to 10nM BDNF, HEK293 cells stably expressing rat TrkB came out at 104%. Further, in the experiment with TrkC (rat) (rat), the EC50 of ERK phosphorylation (phospho-ERK AlphaLISA), NIH3T3 cells stably expressing rat TrkC was 4.97 nM and the Max (%) of ERK phosphorylation (phospho-ERK AlphaLISA), relative to 10nM NT-3, NIH3T3 cells stably expressing rat TrkC is 76.2%. Also, in the experiment with TrkB (human) (human), the EC50 of ERK phosphorylation (phospho-ERK AlphaLISA), HEK293 cells stably expressing human TrkB was found to be 0.68 nM and the Max (%) of ERK phosphorylation (phospho-ERK AlphaLISA), relative to 10nM BDNF, HEK293 cells stably expressing human TrkB is 114%. The molecule also yielded an EC50 of ERK phosphorylation (phospho-ERK AlphaLISA), NIH3T3 cells expressing human TrkA; no response with TrkA (human) (human) of over 100 nM.

B1: NT-3 (ligand)
chain: YAEHKSHRGEYSVCDSESLWVTDKSSAIDIRGHQVTVLGEIKTGNSPVKQYFYETRCKEARPVKNGCRGIDDKHWNSQCKTSQTYVRALTSENNKLVGWRWIRIDTSCVCALSRKIGRT
For B1, in the experiment with TrkC (human) (human), the EC50 of ERK phosphorylation (phospho-ERK AlphaLISA), NIH3T3 cells stably expressing human TrkC was found to be 0.4 nM and the Max (%) of ERK phosphorylation (phospho-ERK AlphaLISA), relative to 10nM NT-3, NIH3T3 cells stably expressing human TrkC is 106%. In the experiment with TrkB (rat) (rat), the EC50 of ERK phosphorylation (phospho-ERK AlphaLISA), HEK293 cells stably expressing rat TrkB stood at 10.7 nM and the Max (%) of ERK phosphorylation (phospho-ERK AlphaLISA), relative to 10nM BDNF, HEK293 cells stably expressing rat TrkB turned out to be 83%. Also, in the experiment with TrkC (rat) (rat), the EC50 of ERK phosphorylation (phospho-ERK AlphaLISA), NIH3T3 cells stably expressing rat TrkC stood at 0.21 nM and the Max (%) of ERK phosphorylation (phospho-ERK AlphaLISA), relative to 10nM NT-3, NIH3T3 cells stably expressing rat TrkC came out at 103%. In the experiment with TrkB (human) (human), this molecule displayed an EC50 of ERK phosphorylation (phospho-ERK AlphaLISA), HEK293 cells stably expressing human TrkB of 2.05 nM and a Max (%) of ERK phosphorylation (phospho-ERK AlphaLISA), relative to 10nM BDNF, HEK293 cells stably expressing human TrkB of 58.5%. For the same molecule, in the experiment with TrkA (human) (human), the EC50 of ERK phosphorylation (phospho-ERK AlphaLISA), NIH3T3 cells expressing human TrkA was found to be 4.35 nM and the Max (%) of ERK phosphorylation (phospho-ERK AlphaLISA), NIH3T3 cells expressing human TrkA was 73.6%.
